Columns and labels:
[1] = system: Hsp90 complexes in Mia-PaCa-2 cell extract; test: Nano-LC-MS/MS of PU-beads pull-downs; type: binding, human; settings: protein identified in PU-beads pull-down of Mia-PaCa-2 cell extract; QSTAR-Elite QTof MS
In short: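 They came from PU-bead pull-downs of pre-cleared lysates (control beads, overnight, 4 °C), eluted by boiling in 2% SDS, gel-separated and run by data-dependent nano-ESI QTof MS/MS.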

[2] = system: Hsp90 complexes in K562 cell extract; test: Nano-LC-MS/MS of PU-beads pull-downs; type: binding; settings: protein identified in PU-beads pull-down of K562 cell extract, QSTAR-Elite QTof MS
In short: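 Proteins were identified by data-dependent nano LC-MS/MS (QTof, ESI) and Mascot searching (p<0.05), then reported as spectral counts and coverage via Scaffold. Inputs were PU-bead versus control-bead pull-downs from lysate pre-cleared with control beads overnight at 4 °C, eluted by boiling in 2% SDS.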

B1: NOP2 (protein, UniProt P46087 1-812, looked up)
28S rRNA …: MGRKLDPTKEKRGPGRKARKQKGAETELVRFLPAVSDENSKRLSSRARKRAAKRRLGSVEAPKTNKSPEAKPLPGKLPKGISAGAVQTAGKKGPQSLFNAPRGKKRPAPGSDEEEEEEDSEEDGMVNHGDLWGSEDDADTVDDYGADSNSEDEEEGEALLPIERAARKQKAREAAAGIQWSEEETEDEEEEKEVTPESGPPKVEEADGGLQINVDEEPFVLPPAGEMEQDAQAPDLQRVHKRIQDIVGILRDFGAQREEGRSRSEYLNRLKKDLAIYYSYGDFLLGKLMDLFPLSELVEFLEANEVPRPVTLRTNTLKTRRRDLAQALINRGVNLDPLGKWSKTGLVVYDSSVPIGATPEYLAGHYMLQGASSMLPVMALAPQEHERILDMCCAPGGKTSYMAQLMKNTGVILANDANAERLKSVVGNLHRLGVTNTIISHYDGRQFPKVVGGFDRVLLDAPCSGTGVISKDPAVKTNKDEKDILRCAHLQKELLLSAIDSVNATSKTGGYLVYCTCSITVEENEWVVDYALKKRNVRLVPTGLDFGQEGFTRFRERRFHPSLRSTRRFYPHTHNMDGFFIAKFKKFSNSIPQSQTGNSETATPTNVDLPQVIPKSENSSQPAKKAKGAAKTKQQLQKQQHPKKASFQKLNGISKGADSELSTVPSVTKTQASSSFQDSSQPAGKAEGIREPKVTGKLKQRSPKLQSSKKVAFLRQNAPPKGTDTQTPAVLSPSKTQATLKPKDHHQPLGRAKGVEKQQLPEQPFEKAAFQKQNDTPKGPQPPTVSPIRSSRPPPAKRKKSQSRGNSQLLLS
Number of Assigned Spectra, Mia-Paca 2 [1]: 7 | Number of Assigned Spectra, K562 Prep 1 [2]: 0 | Number of Assigned Spectra, K562 Prep 2 [2]: 0

B2: NOB1 (protein, UniProt Q9ULX3 2-412, looked up)
RNA-binding protein NOB1: APVEHVVADAGAFLRHAALQDIGKNIYTIREVVTEIRDKATRRRLAVLPYELRFKEPLPEYVRLVTEFSKKTGDYPSLSATDIQVLALTYQLEAEFVGVSHLKQEPQKVKVSSSIQHPETPLHISGFHLPYKPKPPQETEKGHSACEPENLEFSSFMFWRNPLPNIDHELQELLIDRGEDVPSEEEEEEENGFEDRKDDSDDDGGGWITPSNIKQIQQELEQCDVPEDVRVGCLTTDFAMQNVLLQMGLHVLAVNGMLIREARSYILRCHGCFKTTSDMSRVFCSHCGNKTLKKVSVTVSDDGTLHMHFSRNPKVLNPRGLRYSLPTPKGGKYAINPHLTEDQRFPQLRLSQKARQKTNVFAPDYIAGVSPFVENDISSRSATLQVRDSTLGAGRRRLNPNASRKKFVKKR
Number of Assigned Spectra, Mia-Paca 2 [1]: 0 | Number of Assigned Spectra, K562 Prep 1 [2]: 5 | Number of Assigned Spectra, K562 Prep 2 [2]: 0

B3: VAC14 (protein, UniProt Q08AM6 1-782, looked up)
Protein VAC14 homolog: MNPEKDFAPLTPNIVRALNDKLYEKRKVAALEIEKLVREFVAQNNTVQIKHVIQTLSQEFALSQHPHSRKGGLIGLAACSIALGKDSGLYLKELIEPVLTCFNDADSRLRYYACEALYNIVKVARGAVLPHFNVLFDGLSKLAADPDPNVKSGSELLDRLLKDIVTESNKFDLVSFIPLLRERIYSNNQYARQFIISWILVLESVPDINLLDYLPEILDGLFQILGDNGKEIRKMCEVVLGEFLKEIKKNPSSVKFAEMANILVIHCQTTDDLIQLTAMCWMREFIQLAGRVMLPYSSGILTAVLPCLAYDDRKKSIKEVANVCNQSLMKLVTPEDDELDELRPGQRQAEPTPDDALPKQEGTASGGPDGSCDSSFSSGISVFTAASTERAPVTLHLDGIVQVLNCHLSDTAIGMMTRIAVLKWLYHLYIKTPRKMFRHTDSLFPILLQTLSDESDEVILKDLEVLAEIASSPAGQTDDPGPLDGPDLQASHSELQVPTPGRAGLLNTSGTKGLECSPSTPTMNSYFYKFMINLLKRFSSERKLLEVRGPFIIRQLCLLLNAENIFHSMADILLREEDLKFASTMVHALNTILLTSTELFQLRNQLKDLKTLESQNLFCCLYRSWCHNPVTTVSLCFLTQNYRHAYDLIQKFGDLEVTVDFLAEVDKLVQLIECPIFTYLRLQLLDVKNNPYLIKALYGLLMLLPQSSAFQLLSHRLQCVPNPELLQTEDSLKAAPKSQKADSPSIDYAELLQHFEKVQNKHLEVRHQRSGRGDHLDRRVVL
Number of Assigned Spectra, Mia-Paca 2 [1]: 0 | Number of Assigned Spectra, K562 Prep 1 [2]: 5 | Number of Assigned Spectra, K562 Prep 2 [2]: 2

B4: PRPF3 (protein, UniProt O43395 1-683, looked up)
U4/U6 small nuclear …: MALSKRELDELKPWIEKTVKRVLGFSEPTVVTAALNCVGKGMDKKKAADHLKPFLDDSTLRFVDKLFEAVEEGRSSRHSKSSSDRSRKRELKEVFGDDSEISKESSGVKKRRIPRFEEVEEEPEVIPGPPSESPGMLTKLQIKQMMEAATRQIEERKKQLSFISPPTPQPKTPSSSQPERLPIGNTIQPSQAATFMNDAIEKARKAAELQARIQAQLALKPGLIGNANMVGLANLHAMGIAPPKVELKDQTKPTPLILDEQGRTVDATGKEIELTHRMPTLKANIRAVKREQFKQQLKEKPSEDMESNTFFDPRVSIAPSQRQRRTFKFHDKGKFEKIAQRLRTKAQLEKLQAEISQAARKTGIHTSTRLALIAPKKELKEGDIPEIEWWDSYIIPNGFDLTEENPKREDYFGITNLVEHPAQLNPPVDNDTPVTLGVYLTKKEQKKLRRQTRREAQKELQEKVRLGLMPPPEPKVRISNLMRVLGTEAVQDPTKVEAHVRAQMAKRQKAHEEANAARKLTAEQRKVKKIKKLKEDISQGVHISVYRVRNLSNPAKKFKIEANAGQLYLTGVVVLHKDVNVVVVEGGPKAQKKFKRLMLHRIKWDEQTSNTKGDDDEESDEEAVKKTNKCVLVWEGTAKDRSFGEMKFKQCPTENMAREHFKKHGAEHYWDLALSESVLESTD
Number of Assigned Spectra, Mia-Paca 2 [1]: 0 | Number of Assigned Spectra, K562 Prep 1 [2]: 3 | Number of Assigned Spectra, K562 Prep 2 [2]: 0

B5: LRRC40 (protein, UniProt Q9H9A6 1-602, looked up)
Leucine-rich …: MSRLKRIAGQDLRAGFKAGGRDCGTSVPQGLLKAARKSGQLNLSGRNLSEVPQCVWRINVDIPEEANQNLSFGATERWWEQTDLTKLIISNNKLQSLTDDLRLLPALTVLDIHDNQLTSLPSAIRELENLQKLNVSHNKLKILPEEITNLRNLKCLYLQHNELTCISEGFEQLSNLEDLDLSNNHLTTVPASFSSLSSLVRLNLSSNELKSLPAEINRMKRLKHLDCNSNLLETIPPELAGMESLELLYLRRNKLRFLPEFPSCSLLKELHVGENQIEMLEAEHLKHLNSILVLDLRDNKLKSVPDEIILLRSLERLDLSNNDISSLPYSLGNLHLKFLALEGNPLRTIRREIISKGTQEVLKYLRSKIKDDGPSQSESATETAMTLPSESRVNIHAIITLKILDYSDKQATLIPDEVFDAVKSNIVTSINFSKNQLCEIPKRMVELKEMVSDVDLSFNKLSFISLELCVLQKLTFLDLRNNFLNSLPEEMESLVRLQTINLSFNRFKMLPEVLYRIFTLETILISNNQVGSVDPQKMKMMENLTTLDLQNNDLLQIPPELGNCVNLRTLLLDGNPFRVPRAAILMKGTAAILEYLRDRIPT
Number of Assigned Spectra, Mia-Paca 2 [1]: 0 | Number of Assigned Spectra, K562 Prep 1 [2]: 4 | Number of Assigned Spectra, K562 Prep 2 [2]: 3

B6: PRPF31 (protein, UniProt Q8WWY3 1-499, looked up)
U4/U6 small nuclear …: MSLADELLADLEEAAEEEEGGSYGEEEEEPAIEDVQEETQLDLSGDSVKTIAKLWDSKMFAEIMMKIEEYISKQAKASEVMGPVEAAPEYRVIVDANNLTVEIENELNIIHKFIRDKYSKRFPELESLVPNALDYIRTVKELGNSLDKCKNNENLQQILTNATIMVVSVTASTTQGQQLSEEELERLEEACDMALELNASKHRIYEYVESRMSFIAPNLSIIIGASTAAKIMGVAGGLTNLSKMPACNIMLLGAQRKTLSGFSSTSVLPHTGYIYHSDIVQSLPPDLRRKAARLVAAKCTLAARVDSFHESTEGKVGYELKDEIERKFDKWQEPPPVKQVKPLPAPLDGQRKKRGGRRYRKMKERLGLTEIRKQANRMSFGEIEEDAYQEDLGFSLGHLGKSGSGRVRQTQVNEATKARISKTLQRTLQKQSVVYGGKSTIRDRSSGTASSVAFTPLQGLEIVNPQAAEKKVAEANQKYFSSMAEFLKVKGEKSGLMST
Number of Assigned Spectra, Mia-Paca 2 [1]: 0 | Number of Assigned Spectra, K562 Prep 1 [2]: 3 | Number of Assigned Spectra, K562 Prep 2 [2]: 2

— patent US20220074941A1, “HSP90 COMBINATION THERAPY” (Sloan-Kettering Institute for Cancer Research, priority 2011, published 2022)
